US20230416363A1 (KADMON, published 2023)

Tests used:
[1] = biological target: T1, mPD1 (soluble, ELISA of Examples 20 and 24) (mouse, UniProt Q02242 25-167, limits assumed); test: ELISA, mPD1
T1 construct: also called Biotin-mPD1
T1 sequence (looked up): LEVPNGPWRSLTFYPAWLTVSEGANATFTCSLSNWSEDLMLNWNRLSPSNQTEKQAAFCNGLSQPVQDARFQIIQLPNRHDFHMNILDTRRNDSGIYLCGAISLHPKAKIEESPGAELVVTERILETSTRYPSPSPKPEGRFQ

mPD-1-Fc [2] = biological target: T2, mPD-1-Fc (mouse; human, UniProt Q02242 25-167, limits assumed); test: ELISA, mPD-1-Fc
T2 construct: domain: IgV domain; not shown: human IgG1 Fc
T2 sequence (looked up): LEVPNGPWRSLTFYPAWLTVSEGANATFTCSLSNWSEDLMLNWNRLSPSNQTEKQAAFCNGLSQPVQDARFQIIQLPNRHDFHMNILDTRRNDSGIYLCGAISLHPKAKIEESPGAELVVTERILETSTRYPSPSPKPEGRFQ

mPD-1-Fc [3] = biological target: T2, mPD-1-Fc; test: SPR Biacore, mPD1-Fc
mPD-1-his [4] = biological target: T3, mPD-1-his (mouse, UniProt Q02242 25-167, limits assumed); test: SPR Biacore, mPD1-his
T3 construct: domain: IgV domain
T3 sequence: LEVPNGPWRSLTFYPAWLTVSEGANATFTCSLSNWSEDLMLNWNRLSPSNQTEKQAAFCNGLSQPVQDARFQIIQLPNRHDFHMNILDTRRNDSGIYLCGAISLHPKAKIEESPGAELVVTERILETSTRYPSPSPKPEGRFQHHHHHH

[5] = biological target: T4, mouse PD-1 expressed on cells (mouse, UniProt Q02242 25-288); test: cell-based or functional assay
T4 sequence (looked up): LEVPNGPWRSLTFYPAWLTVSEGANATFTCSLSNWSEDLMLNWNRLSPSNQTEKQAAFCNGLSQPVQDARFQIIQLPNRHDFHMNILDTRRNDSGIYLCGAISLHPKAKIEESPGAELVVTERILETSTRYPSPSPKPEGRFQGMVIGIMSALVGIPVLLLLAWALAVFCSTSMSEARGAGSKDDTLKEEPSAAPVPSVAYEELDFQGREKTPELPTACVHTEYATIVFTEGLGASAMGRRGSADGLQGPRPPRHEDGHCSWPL

[6] = biological target: T1, mPD1 (soluble, ELISA of Examples 20 and …); test: blocking ELISA, mPD1 to mPDL1
mPD-1-Fc [7] = biological target: T2, mPD-1-Fc; test: blocking ELISA, mPD-1 to PD-L1
[8] = biological target: T4, mouse PD-1 expressed on cells; test: flow cytometry, mPD1-293 cells
[9] = biological target: T4, mouse PD-1 expressed on cells; test: flow cytometry, mPD1-eff cells
mPD-1-Fc [10] = biological target: T2, mPD-1-Fc; test: ELISA, mPD-1-Fc on streptavidin
[11] = biological target: T4, mouse PD-1 expressed on cells; test: flow cytometry, mPD-1-293 cells
mPD-1-his [12] = biological target: T3, mPD-1-his; test: ELISA, mPD-1-his on streptavidin
[13] = biological target: T1, mPD1 (soluble, ELISA of Examples 20 and …); test: ELISA, biotin-mPD1 on streptavidin
[14] = biological target: T5, hPD1 (soluble, ELISA of Example 20) (human, UniProt Q15116 25-167, limits assumed); test: ELISA, hPD1; direct binding ELISA on hPD1 (EC50 row)
T5 sequence (Q15116 25-167 limits assumed): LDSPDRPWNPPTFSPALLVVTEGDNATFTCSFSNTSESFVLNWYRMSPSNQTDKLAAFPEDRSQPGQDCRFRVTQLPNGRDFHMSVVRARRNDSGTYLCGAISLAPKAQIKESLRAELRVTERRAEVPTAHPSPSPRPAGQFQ

[15] = biological target: T5, hPD1 (soluble, ELISA of Example 20); test: ELISA, hPD1
[16] = biological target: T6, human PD-1 expressed on cells (human, UniProt Q15116 25-288); test: cell-based or functional assay
T6 sequence (Q15116 25-288): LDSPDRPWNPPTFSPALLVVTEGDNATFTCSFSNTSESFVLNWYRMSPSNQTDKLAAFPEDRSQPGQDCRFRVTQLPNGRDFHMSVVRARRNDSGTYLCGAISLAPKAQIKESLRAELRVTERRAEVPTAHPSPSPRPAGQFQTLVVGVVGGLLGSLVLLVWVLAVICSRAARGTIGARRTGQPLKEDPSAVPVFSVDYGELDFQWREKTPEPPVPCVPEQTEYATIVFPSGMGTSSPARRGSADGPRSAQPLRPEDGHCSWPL

[17] = biological target: T4, mouse PD-1 expressed on cells; test: cell-based or functional assay; remark: listed apart in the source
hPD-1-Fc [18] = biological target: T7, hPD-1-Fc (human, UniProt Q15116 25-167); test: SPR Biacore, hPD1-Fc
T7 construct: domain: IgV domain; also called human PD-1-Fc; not shown: human IgG1 Fc
T7 sequence (Q15116 25-167 limits assumed): as the sequence (Q15116 25-167 limits assumed) above

[19] = biological target: T5, hPD1 (soluble, ELISA of Example 20); test: blocking ELISA, hPD1 to hPDL1
[20] = biological target: T6, human PD-1 expressed on cells; test: flow cytometry, hPD1-293 cells
[21] = biological target: T6, human PD-1 expressed on cells; test: flow cytometry, hPD1-Jurkat cells
hPD-1-Fc [22] = biological target: T7, hPD-1-Fc; test: SPR, Exp. 1
hPD-1-his [23] = biological target: T8, hPD-1-his (human, UniProt Q15116 25-167); test: SPR, Exp. 1
T8 construct: domain: IgV domain; monomer in solution; biotin-labelled where captured by streptavidin; also called biotin-hPD-1-his
T8 sequence (Q15116 other isoform, or with tags, fused parts or gaps limits assumed): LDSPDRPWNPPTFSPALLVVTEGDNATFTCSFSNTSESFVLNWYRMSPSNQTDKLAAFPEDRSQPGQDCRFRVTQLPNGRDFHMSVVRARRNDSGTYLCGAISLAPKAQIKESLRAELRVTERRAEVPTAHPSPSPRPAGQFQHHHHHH

hPD-1-Fc [24] = biological target: T7, hPD-1-Fc; test: SPR, Exp. 2
hPD-1-his [25] = biological target: T8, hPD-1-his; test: SPR, Exp. 2
hPD-1-Fc [26] = biological target: T7, hPD-1-Fc; test: SPR, Exp. 3
hPD-1-his [27] = biological target: T8, hPD-1-his; test: SPR, Exp. 3
hPD-1-his [28] = biological target: T8, hPD-1-his; test: SPR, Exp. 4
hPD-1-Fc [29] = biological target: T7, hPD-1-Fc; test: ELISA, PD-1-Fc coated
hPD-1-Fc [30] = biological target: T7, hPD-1-Fc; test: ELISA, hPD-1-Fc coated
[31] = biological target: T6, human PD-1 expressed on cells; test: cell-based or functional assay; remark: listed apart in the source
hPD-1-his [32] = biological target: T8, hPD-1-his; test: ELISA, PD-1-his on anti-his
hPD-1-his [33] = biological target: T8, hPD-1-his; test: ELISA, PD-1-his on anti-his; remark: listed apart in the source
hPD-1-Fc [34] = biological target: T7, hPD-1-Fc; test: SPR, range over experiments
hPD-1-Fc [35] = biological target: T7, hPD-1-Fc; test: blocking ELISA, PD-1 to PD-L1
hPD-1-Fc [36] = biological target: T7, hPD-1-Fc; test: blocking ELISA, PD-1 to PD-L2
[37] = biological target: T6, human PD-1 expressed on cells; test: flow cytometry, hPD1-293 cells; remark: listed apart in the source
hPD-1-his [38] = biological target: T8, hPD-1-his; test: ELISA, PD-1-his on streptavidin
hPD-1-Fc [39] = biological target: T7, hPD-1-Fc; test: blocking ELISA, hPD-1 to hPD-L1; parameters: unit not given here
[40] = biological target: T6, human PD-1 expressed on cells; test: flow cytometry, hPD-1-293 cells
[41] = biological target: T6, human PD-1 expressed on cells; test: flow cytometry, hPD1-Jurkat cells; remark: listed apart in the source
[42] = biological target: T6, human PD-1 expressed on cells; test: flow cytometry, hPD-1-Jurkat cells
hPD-1-Fc [43] = biological target: T7, hPD-1-Fc; test: SPR Biacore T200, PD-1-Fc immobilised
hPD-1-his [44] = biological target: T8, hPD-1-his; test: SPR Biacore T200, PD-1-his immobilised
hPD-1-his [45] = biological target: T8, hPD-1-his; test: ELISA, biotin-PD-1-his on streptavidin
[46] = biological target: T6, human PD-1 expressed on cells; test: flow cytometry, activated PBMC donor FA
[47] = biological target: T6, human PD-1 expressed on cells; test: flow cytometry, activated PBMC donor two
[48] = biological target: T6, human PD-1 expressed on cells; test: flow cytometry, SEB-activated PBMC donor
[49] = biological target: T6, human PD-1 expressed on cells; test: flow cytometry, SEB-activated PBMC donor two
hPD-1-his [50] = biological target: T8, hPD-1-his; test: SPR (Biacore), hPD1his immobilised; lower end of the printed KD range over the experiments
hPD-1-his [51] = biological target: T8, hPD-1-his; test: SPR (Biacore), hPD1his immobilised; upper end of the printed KD range over the experiments

B1: R3A9 (antibody, V domains shown)
VH: QVQLVQSGAEVKKPGASVKVSCKASGHTFTSYYIHWVRQAPGQGLEWMGIINPSGGSTSYAQKFQGRVTMTRDTSTSTVYMELSSLRSEDTAVYYCARDRAYGGAGDYWGQGTLVTVSS
VL: DIQMTQSPSSLSASVGDRVTITCRASQSVGTWLAWYQQKPGKAPKLLIYSASTLQSGVPSRFSGSGSGTDFTLTISSLQPEDFATYYCQQSYSAPLTFGGGTKVEIK
notes: also called 7115A; mPD1 parental (R3A9)
Work on B1 yielded an EC50 [1] of 1360 pM, an EC50 (mPD-1-Fc [2]) of 14600 pM and a Kd (mPD-1-Fc [3]) of 12100 pM. It also gave a koff (mPD-1-Fc [3]) of 0.0014 s⁻¹, a kon (mPD-1-Fc [3]) of 116000 M⁻¹ s⁻¹ and a Kd (mPD-1-his [4]) of 15700 pM. For the same binder, the koff (mPD-1-his [4]) was 0.00641 s⁻¹, the kon (mPD-1-his [4]) was 409000 M⁻¹ s⁻¹ and the “IC 50, Promega assay” value [5] was 1.62 µg/mL. For the same binder, the IC50 [6] was 722 pM, the IC50 (mPD-1-Fc [7]) was 441 pM and the EC50 [8] was 314 pM. It also gave an EC50 [9] of 645 pM, an EC50 (mPD-1-Fc [10]) of 156 pM and an EC50 [11] of 566 pM. For the same binder, the EC50 (mPD-1-his [12]) was 1610 pM, the EC50 [13] was 462 pM and the EC50 [14] was 3250 pM.

B2: m4D1 (antibody, V domains shown)
VH: QVQLVQSGAEVKKPGASVKVSCKASGHTFTSYYIHWVRQAPGQGLEWMGIINPSGGSTSYAQKFQGRVTMTRDTSTSTVYMELSSLRSEDTAVYYCARDRAYGGAGDYWGQGTLVTVSS
VL: DIQMTQSPSSLSASVGDRVTITCRASQSISAWLAWYQQKPGKAPKLLIYKASSLESGVPSRFSGSGSGTDFTLTISSLQPEDFATYYCQQSYSPPATFGGGTKVEIK
notes: R3A9 derivative
For B2, the EC50 [15] was 221 pM, the EC50 [1] was 2030 pM and the “IC50, Promega blockade bioassay” value [16] was 2120 pM. For the same binder, the “IC50, Promega blockade bioassay” value [17] was 572 pM, the Kd (hPD-1-Fc [18]) was 1090 pM and the koff (hPD-1-Fc [18]) was 6.36e-05 s⁻¹. For the same binder, the kon (hPD-1-Fc [18]) was 58300 M⁻¹ s⁻¹, the Kd (mPD-1-Fc [3]) was 2690 pM and the koff (mPD-1-Fc [3]) was 0.000179 s⁻¹. For the same binder, the kon (mPD-1-Fc [3]) was 66300 M⁻¹ s⁻¹, the Kd (mPD-1-his [4]) was 2870 pM and the koff (mPD-1-his [4]) was 0.000201 s⁻¹. The kon (mPD-1-his [4]) was 70000 M⁻¹ s⁻¹, the IC50 [19] was 6020 pM and the IC50 [6] was 882 pM. For the same binder, the EC50 [20] was 1480 pM, the EC50 [8] was 1140 pM and the EC50 [9] was 441 pM. The EC50 [21] was 738 pM and the EC50 [13] was 1150 pM.

B3: 38A6 (antibody, V domains shown)
VH: EVQLLESGGGLVQPGGSLRLSCAASGFTFSSYWMSWVRQAPGKGLEWVSAISGSGGSTYYADSVKGRFTISRDNSKNTLYLQMNSLRAEDTAVYYCASSPLQWVDVWGQGTTVTVSS
VL: DIQMTQSPSSLSASVGDRVTITCRASQDISRWLGWYQQKPGKAPKLLIYAASTLQSGVPSRFSGSGSGTDFTLTISSLQPEDFATYYCQQANSFPFTFGPGTKLEIK
notes: also called 780_46
In the case of B3, the Kd (hPD-1-Fc [22]) is reported as less than 188 pM, the Kd (hPD-1-his [23]) is reported as 2300 pM and the Kd (hPD-1-Fc [24]) is reported as less than 136 pM. The Kd (hPD-1-his [25]) was less than 586 pM, the Kd (hPD-1-Fc [26]) was less than 301 pM and the Kd (hPD-1-his [27]) was less than 574 pM. The Kd (hPD-1-his [28]) was less than 90 pM, the EC50 (hPD-1-Fc [29]) was 79 pM and the “OD at 10 nM” value (hPD-1-Fc [30]) was 0.993 OD. For the same binder, the “EC50, Promega blockade bioassay” value [31] was 0.164 µg/mL, the Fold induction [31] was 5.66 fold and the “OD at 10 nM” value (hPD-1-his [32]) was 0.576 OD. The EC50 (hPD-1-his [33]) was 89 pM, the Kd (hPD-1-Fc [34]) was 140 to 300 pM and the IC50 (hPD-1-Fc [35]) was roughly 2140 pM. For the same binder, the “Inhibition % at 50 nM” value (hPD-1-Fc [35]) was 92.2%, the “Inhibition, % at 5.56 nM” value (hPD-1-Fc [35]) was 92% and the IC50 (hPD-1-Fc [36]) was 2390 pM. For the same binder, the “Inhibition, % at 3.7 nM” value (hPD-1-Fc [36]) was 90.4%, the “Inhibition, % at 100 nM” value (hPD-1-Fc [36]) was 94.8% and the EC50 [37] was 150 pM. For the same binder, the “MFI at 5 nM” value [37] was 110 MFI, the “OD at 10 nM” value (hPD-1-his [38]) was 0.948 OD and the “Inhibition at 50 nM” value (hPD-1-Fc [39]) was 91.7. The “MFI, 5 nM” value [40] was 227 MFI, the EC50 [41] was 210 pM and the “MFI at 5 nM” value [41] was 89.5 MFI. The “MFI, 5 nM” value [42] was 59.9 MFI, the Kd (hPD-1-Fc [43]) was 477 pM and the Kd (hPD-1-his [44]) was 1180 pM. For the same binder, the EC50 (hPD-1-his [45]) was 84 pM, the EC50 [46] was 210 pM and the “MFI at 25 nM” value [46] was 14.5 MFI. For the same binder, the EC50 [47] was 170 pM, the “MFI at 25 nM” value [47] was 15.9 MFI and the “MFI, 5 nM” value [48] was 65.2 MFI. For the same binder, the “MFI, 5 nM” value [49] was 54.7 MFI, the Kd (hPD-1-his [50]) was no less than 900 pM and the Kd (hPD-1-his [51]) was no more than 2300 pM.
